Test results from article PMC9098913, “In vitro reconstitution of Escherichia coli divisome activation” (Nature Communications, 2022).

Experiments:
[1] = test system: FtsZ; conditions: […] Tris-NTA; p-value 3.86 × 10^−4; three repeats
Procedure, shortened: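 Cy5-labelled His-tagged FtsA (0.5–1 µM) bound to Tris-NTA-containing supported membranes, 20 min, washed; FtsA density set by Tris-NTA fraction. Time-lapse images drift-corrected; colocalization with FtsZ as Pearson's coefficient, FtsZ/FtsA ratio from linear-regression slope of intensity scatterplots.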

[2] = test system: FtsZ
Procedure, shortened: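 Cy5-labelled His-tagged FtsA variants (0.5–1 µM) tethered to supported membranes via Tris-NTA lipids, with Tris-NTA density set by mixing SUVs; FRET/FRAP used equimolar Cy3/Cy5 FtsA. FtsZ–FtsA co-treadmilling imaged as dual-colour videos at one frame per 2 s; dynamics and colocalization quantified by automated image subtraction analysis.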

[3] = Membrane off-binding rate (koff) of FtsA from FRAP; design: Off binding rate koff: unit not given here; conditions: Fig. S4i, summary value
Procedure, shortened: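 Equimolar Cy3- and Cy5-labelled FtsA plus 20% unlabelled FtsA on membrane; a rectangular ROI is bleached with the 641 nm laser and recovery imaged at one or two frames per second. Diffusion coefficient and off-rate are separated by fitting the shape of the recovery profile, using the change in slope at the bleach borders.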

B1: FtsA R286W-His6: FtsA R286W (1-405) with amphipathic helix replaced by C-terminal His-tag (protein)
chain: MIKATDRKLVVGLEIGTAKVAALVGEVLPDGMVNIIGVGSCPSRGMDKGGVNDLESVVKCVQRAIDQAELMADCQISSVYLALSGKHISCQNEIGMVPISEEEVTQEDVENVVHTAKSVRVRDEHRVLHVIPQEYAIDYQEGIKNPVGLSGVRMQAKVHLITCHNDMAKNIVKAVERCGLKVDQLIFAGLASSYSVLTEDERELGVCVVDIGGGTMDIAVYTGGALRHTKVIPYAGNVVTSDIAYAFGTPPSDAEAIKVRHGCALGSIVGKDESVEVPSVGGRPPWSLQRQTLAEVIEPRYTELLNLVNEEILQLQEKLRQQGVKHHLAAGIVLTGGAAQIEGLAACAQRVFHTQVRIGAPLNITGLTDYAQEPYYSTAVGLLHYGKESHLNGEAEVEKRVTASV
modifications: Cy3 or Cy5 at the N-terminus in the labelled form (sortagging as for native FtsA); left off: TwinStrep-SUMO, N-terminal, cleaved | 5xGlycine tag, N-terminal, kept | His6, C-terminal, kept
PCC His-tagged FtsA/FtsZ [1]: 0.63 ± 0.02
co-treadmilling with FtsZ, reduction compared to the reversibly membrane-binding protein ([2]; […] Tris-NTA R286W-His6 vs 0.8 µM R286W): about 50%
PCCdiff His-tagged FtsA/FtsZ ([2]; […] Tris-NTA, p-value […] 10^−4 (vs WT-His6), 7.78 × 10^−5 (vs R286W), three repeats): 0.36 ± 0.02
Off binding rate koff ([3]; 0.10 % Tris-NTA lipids, + FtsZ): 0.0533
Off binding rate koff ([3]; 0.10 % Tris-NTA lipids, without FtsZ): 0.0639
Off binding rate koff ([3]; 0.40 % Tris-NTA lipids, + FtsZ): 0.0309
Off binding rate koff ([3]; 0.40 % Tris-NTA lipids, without FtsZ): 0.0536
Off binding rate koff ([3]; 0.60 % Tris-NTA lipids, + FtsZ): 0.0489
Off binding rate koff ([3]; 0.60 % Tris-NTA lipids, without FtsZ): 0.0398
Off binding rate koff ([3]; […] Tris-NTA lipids, + FtsZ): 0.0386
Off binding rate koff ([3]; […] Tris-NTA lipids, without FtsZ): 0.0644
